Paper PMC7876137, “Functional and structural characterization of a flavoprotein monooxygenase essential for biogenesis of tryptophylquinone cofactor” (Nature Communications, 2021)

T1: linear QhpC (nascent QhpC polypeptide with the 28-residue leader peptide and a C-terminal Twin-Strep tag, … (Pseudomonas putida IFO 15366 (NBRC …)))
T1 construct: also called QhpC-St2; source: E. coli C41 (DE3), co-expressed with His6-QhpD; QhpCD complex purified (HisTrap, Strep trap); QhpD removed by heat denaturation (60 °C, 20 min) before the QhpD-catalyzed reaction; not shown: Twin-Strep (St2), C-terminal, kept
T1 chain: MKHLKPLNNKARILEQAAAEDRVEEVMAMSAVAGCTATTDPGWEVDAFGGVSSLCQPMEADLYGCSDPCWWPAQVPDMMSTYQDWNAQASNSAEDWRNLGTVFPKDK

T2: crosslinked QhpC (quinone-less QhpC with three intra-peptidyl thioether bonds, the 28-residue leader peptide … (Pseudomonas putida IFO 15366 (NBRC …, three intra-peptidyl Cys-to-Asp/Glu thioether bonds (Cys7-Glu16, Cys27-Asp33, Cys41-Asp49 as drawn in Supplementary Fig. 5); Cys37 and Trp43 free)
T2 construct: source: E. coli C41 (DE3), co-expressed with His6-QhpD; QhpCD complex purified (HisTrap, Strep trap); QhpD removed by heat denaturation (60 °C, 20 min) after the QhpD-catalyzed thioether bond formation; not shown: Twin-Strep (St2), C-terminal, kept
T2 chain: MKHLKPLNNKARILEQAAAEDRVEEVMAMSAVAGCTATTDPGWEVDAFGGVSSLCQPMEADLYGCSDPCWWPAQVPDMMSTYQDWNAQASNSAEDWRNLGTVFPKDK


Assays:
[1] = biological target: crosslinked QhpC (quinone-less QhpC of Ps. putida with three intra-peptidyl thioether bonds, the 28-residue leader peptide and a C-terminal Twin-Strep tag) (Pseudomonas putida IFO 15366 (NBRC 15366)); test: BLI; BLItz; QhpC immobilised through the St2-tag on streptavidin-coated biosensors, QhpG as analyte; 10 mM Tris-HCl, pH 7.4, 150 mM NaCl, 0.1% BSA, 0.02% Tween 20, 25 °C; global analysis
[2] = biological target: T1, linear QhpC (nascent QhpC polypeptide …); test: BLI; BLItz system; linear or crosslinked QhpC immobilised through the St2-tag on streptavidin-coated biosensors; QhpG as analyte; 10 mM Tris-HCl pH 7.4, 150 mM NaCl, 0.1% BSA, 0.02% Tween 20; 25 °C; reference with a ligand-free biosensor; global analysis; conditions: both partners purified
[3] = biological target: T2, crosslinked QhpC (quinone-less QhpC …); test: as above; conditions: both partners purified

Row | Molecule | fold higher affinity (KD) than for linear QhpC [1] [fold] | Kd [2] [nM] | koff [2] [s⁻¹] | kon [2] [M⁻¹ s⁻¹] | Kd [3] [nM] | koff [3] [s⁻¹] | kon [3] [M⁻¹ s⁻¹]
1 | QhpG from Pseudomonas putida IFO 15366 (wild-type) (enzyme, Monomer by gel filtration; From the His6-TEV oligonucleotide, a few residues (G, H) may remain before Met1 after TEV cleavage; this is surmised; also called PpQhpG; peptidyl tryptophan dihydroxylase; source: E. coli C41 (DE3), purified (Ni-Sepharose FF, HisTrap HP; His6-tag removed with TEV protease, second HisTrap HP); not shown: His6, N-terminal, cleaved) MAEPRIVVLGAGPAGAATAIGLRRLGYAVTVVSEWRRFAAVEGVSQRVLEGLRHVGLGGALRQAAMPATRQVHWNGQQLHLNQEFLLDRQRFDRALRDDLQRAGVSVVEGRVREVVRDVGHGIRLDDGQVLQADFLVEARGRQAPLAADRLRGPETVSLLNVWQAAPGAPASAVESLADGWAWMARLEDGRCYWQVTLDAAGLPGKAGLADYCAARRADSALVTELFDARALASAEVHARSSTAILAGECVGQDWIRVGDAAMAVDPLSGNGIFQSLSSALQAPVVINTLLRRPERAGLARQFHQQRIEQLFLRFARIGRDFYGQEQGRVGQPFWARRQGWPDMQALHVAADWSAVRVERRPVLRDGLVDEAEVVVTADQPLGVWHLQGVELAPAVRELQAGRPLEAVVSGLSGEQQRMVRRWLLEQGLV | – | 2800 ± 22 | 0.16 | 59000 | 28 ± 2.3 | 0.014 | 490000
2 | QhpG E42A mutant (Pseudomonas putida) (enzyme, E42A is still to be applied; source: E. coli C41 (DE3), purified (Ni-Sepharose FF, HisTrap HP; His6-tag removed with TEV protease, second HisTrap HP); not shown: His6, N-terminal, cleaved) MAEPRIVVLGAGPAGAATAIGLRRLGYAVTVVSEWRRFAAVAGVSQRVLEGLRHVGLGGALRQAAMPATRQVHWNGQQLHLNQEFLLDRQRFDRALRDDLQRAGVSVVEGRVREVVRDVGHGIRLDDGQVLQADFLVEARGRQAPLAADRLRGPETVSLLNVWQAAPGAPASAVESLADGWAWMARLEDGRCYWQVTLDAAGLPGKAGLADYCAARRADSALVTELFDARALASAEVHARSSTAILAGECVGQDWIRVGDAAMAVDPLSGNGIFQSLSSALQAPVVINTLLRRPERAGLARQFHQQRIEQLFLRFARIGRDFYGQEQGRVGQPFWARRQGWPDMQALHVAADWSAVRVERRPVLRDGLVDEAEVVVTADQPLGVWHLQGVELAPAVRELQAGRPLEAVVSGLSGEQQRMVRRWLLEQGLV | – | – | – | – | 65 ± 8.1 | 0.011 | 170000
3 | QhpG R70A mutant (Pseudomonas putida) (enzyme, R70A is still to be applied; source: E. coli C41 (DE3), purified (Ni-Sepharose FF, HisTrap HP; His6-tag removed with TEV protease, second HisTrap HP); not shown: His6, N-terminal, cleaved) MAEPRIVVLGAGPAGAATAIGLRRLGYAVTVVSEWRRFAAVEGVSQRVLEGLRHVGLGGALRQAAMPATAQVHWNGQQLHLNQEFLLDRQRFDRALRDDLQRAGVSVVEGRVREVVRDVGHGIRLDDGQVLQADFLVEARGRQAPLAADRLRGPETVSLLNVWQAAPGAPASAVESLADGWAWMARLEDGRCYWQVTLDAAGLPGKAGLADYCAARRADSALVTELFDARALASAEVHARSSTAILAGECVGQDWIRVGDAAMAVDPLSGNGIFQSLSSALQAPVVINTLLRRPERAGLARQFHQQRIEQLFLRFARIGRDFYGQEQGRVGQPFWARRQGWPDMQALHVAADWSAVRVERRPVLRDGLVDEAEVVVTADQPLGVWHLQGVELAPAVRELQAGRPLEAVVSGLSGEQQRMVRRWLLEQGLV | – | – | – | – | 48 ± 3.6 | 0.022 | 470000
4 | QhpG R47A mutant (Pseudomonas putida) (enzyme, R47A is still to be applied; source: E. coli C41 (DE3), purified (Ni-Sepharose FF, HisTrap HP; His6-tag removed with TEV protease, second HisTrap HP); not shown: His6, N-terminal, cleaved) MAEPRIVVLGAGPAGAATAIGLRRLGYAVTVVSEWRRFAAVEGVSQAVLEGLRHVGLGGALRQAAMPATRQVHWNGQQLHLNQEFLLDRQRFDRALRDDLQRAGVSVVEGRVREVVRDVGHGIRLDDGQVLQADFLVEARGRQAPLAADRLRGPETVSLLNVWQAAPGAPASAVESLADGWAWMARLEDGRCYWQVTLDAAGLPGKAGLADYCAARRADSALVTELFDARALASAEVHARSSTAILAGECVGQDWIRVGDAAMAVDPLSGNGIFQSLSSALQAPVVINTLLRRPERAGLARQFHQQRIEQLFLRFARIGRDFYGQEQGRVGQPFWARRQGWPDMQALHVAADWSAVRVERRPVLRDGLVDEAEVVVTADQPLGVWHLQGVELAPAVRELQAGRPLEAVVSGLSGEQQRMVRRWLLEQGLV | – | – | – | – | 1500 ± 490 | 0.023 | 15000

Second part, the molecule after the results:

Row | fold higher affinity (KD) than for linear QhpC [1] [fold] | Kd [2] [nM] | koff [2] [s⁻¹] | kon [2] [M⁻¹ s⁻¹] | Kd [3] [nM] | koff [3] [s⁻¹] | kon [3] [M⁻¹ s⁻¹] | Molecule
5 | 100 | – | – | – | – | – | – | QhpG from Pseudomonas putida (flavoprotein monooxygenase, peptidyl tryptophan dihydroxylase), tag-less wild type (enzyme)
6 | – | – | – | – | 37 ± 19 | 0.013 | 360000 | QhpG W183F mutant (Pseudomonas putida) (enzyme, W183F is still to be applied; source: E. coli C41 (DE3), purified (Ni-Sepharose FF, HisTrap HP; His6-tag removed with TEV protease, second HisTrap HP); not shown: His6, N-terminal, cleaved) MAEPRIVVLGAGPAGAATAIGLRRLGYAVTVVSEWRRFAAVEGVSQRVLEGLRHVGLGGALRQAAMPATRQVHWNGQQLHLNQEFLLDRQRFDRALRDDLQRAGVSVVEGRVREVVRDVGHGIRLDDGQVLQADFLVEARGRQAPLAADRLRGPETVSLLNVWQAAPGAPASAVESLADGWAFMARLEDGRCYWQVTLDAAGLPGKAGLADYCAARRADSALVTELFDARALASAEVHARSSTAILAGECVGQDWIRVGDAAMAVDPLSGNGIFQSLSSALQAPVVINTLLRRPERAGLARQFHQQRIEQLFLRFARIGRDFYGQEQGRVGQPFWARRQGWPDMQALHVAADWSAVRVERRPVLRDGLVDEAEVVVTADQPLGVWHLQGVELAPAVRELQAGRPLEAVVSGLSGEQQRMVRRWLLEQGLV
7 | – | – | – | – | 78 ± 28 | 0.011 | 140000 | QhpG R314A mutant (Pseudomonas putida) (enzyme, R314A is still to be applied; source: E. coli C41 (DE3), purified (Ni-Sepharose FF, HisTrap HP; His6-tag removed with TEV protease, second HisTrap HP); not shown: His6, N-terminal, cleaved) MAEPRIVVLGAGPAGAATAIGLRRLGYAVTVVSEWRRFAAVEGVSQRVLEGLRHVGLGGALRQAAMPATRQVHWNGQQLHLNQEFLLDRQRFDRALRDDLQRAGVSVVEGRVREVVRDVGHGIRLDDGQVLQADFLVEARGRQAPLAADRLRGPETVSLLNVWQAAPGAPASAVESLADGWAWMARLEDGRCYWQVTLDAAGLPGKAGLADYCAARRADSALVTELFDARALASAEVHARSSTAILAGECVGQDWIRVGDAAMAVDPLSGNGIFQSLSSALQAPVVINTLLRRPERAGLARQFHQQRIEQLFLAFARIGRDFYGQEQGRVGQPFWARRQGWPDMQALHVAADWSAVRVERRPVLRDGLVDEAEVVVTADQPLGVWHLQGVELAPAVRELQAGRPLEAVVSGLSGEQQRMVRRWLLEQGLV
